Measurements taken from publication PMC6764681.

Tests used:
[1] = target: CH505TF.N279K.G458Y Env on pseudovirus produced in 293T cells (not Man5-enriched) (HIV-1 clade C, strain CH505 transmitted/founder)
[2] = target: Man5-enriched CH505TF.N279K Env on pseudovirus produced in 293S GnT1- cells (HIV-1 clade C, strain CH505 transmitted/founder); details: scale: fold less susceptible than the Man5-enriched double mutant
[3] = target: Man5-enriched CH505TF.G458Y Env on pseudovirus produced in 293S GnT1- cells (HIV-1 clade C, strain CH505 transmitted/founder); details: scale: fold less susceptible than the Man5-enriched double mutant
[4] = target: Man5-enriched stabilized CH505TF.N279K.G458Y.SOSIP.664 Env trimer (made in 293S GnT1- cells) (HIV-1 clade C, strain CH505 transmitted/founder | HIV-1 clade A, strain BG505) (UniProt Q2N0S6)
[5] = target: Man5-enriched stabilized CH505TF.N279K.G458Y.SOSIP.664 Env trimer (made in 293S GnT1- cells) (HIV-1 clade C, strain CH505 transmitted/founder | HIV-1 clade A, strain BG505) (UniProt Q2N0S6); experiment: cryo-EM structure; trimer at 1 mg/ml incubated with 4-5-fold molar excess of CH235 UCA2 Fab for 30-60 minutes, 0.085 mM dodecyl-maltoside; C3 symmetry, 4.2 Å
[6] = target: CH235 UCA2 (unmutated common ancestor of the CH235/CH235.12 lineage), IgG; experiment: SPR; details: apparent KD, average of two measurements
[7] = target: CH235 UCA2 (unmutated common ancestor of the CH235/CH235.12 lineage), IgG (human); experiment: SPR; Biacore 3000; CH235 UCA2 antibody captured (200-350 RU) by goat anti-human IgG Fc immobilised on a CM3 chip; SOSIP trimers 50-750 nM in HBS-EP+ injected 5 min at 50 ul/min, 10 min dissociation; 1:1 Langmuir model with local Rmax; apparent KD, average of two measurements
Chain of CH235 UCA2 (unmutated common ancestor of the CH235/CH235.12 lineage), IgG (human) (heavy, as listed by the source, chain 1 of 2): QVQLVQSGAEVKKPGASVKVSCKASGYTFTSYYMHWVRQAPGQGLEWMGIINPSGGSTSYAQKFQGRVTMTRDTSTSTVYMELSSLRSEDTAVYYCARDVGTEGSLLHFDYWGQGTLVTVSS
Chain of CH235 UCA2 (unmutated common ancestor of the CH235/CH235.12 lineage), IgG (human) (light, as listed by the source, chain 2 of 2): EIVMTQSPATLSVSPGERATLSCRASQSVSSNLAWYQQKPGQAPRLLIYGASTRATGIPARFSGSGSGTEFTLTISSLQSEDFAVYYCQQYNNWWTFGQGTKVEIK

[8] = trimer produced in Freestyle293 (293F) cells, parent: NB
[9] = trimer produced in 293S GnT1- cells

CH235 UCA2 (unmutated common ancestor of the CH235/CH235.12 lineage), IgG (antibody)
IC50 of neutralization of CH505TF.N279K.G458Y Env-pseudotyped virus that was not Man5-enriched, in TZM-bl cells [1]: 9.2 µg/mL | neutralization in TZM-bl cells: fold less susceptible than the Man5-enriched double mutant [2]: 92 | neutralization in TZM-bl cells: fold less susceptible than the Man5-enriched double mutant [3]: 973 | IC50 of neutralization of Man5-enriched (293S GnT1-) CH505TF.N279K.G458Y Env-pseudotyped virus in TZM-bl cells (full-length Env on virus, not the SOSIP) [4]: 0.04 µg/mL

CH235 UCA2 Fab
stoichiometry N (Fabs per Env trimer) [5]: 3

CH505TF SOSIP.664 v4.1 (293F) N279K
Kd [6, 8]: 154 nM

CH505TF SOSIP.664 v4.1 (293F) N279K; G458Y
Kd [6, 8]: 83 nM

Man5-enriched stabilized CH505TF.N279K.G458Y.SOSIP.664 Env trimer (made in 293S GnT1- cells) (from UniProt Q2N0S6 1-860) (complex)
Kd [7]: 9 nM

Man5-enriched stabilized parental CH505TF SOSIP.664 Env trimer (made in 293S GnT1- cells) (from UniProt Q2N0S6) G458Y
Kd [6, 9]: 996 nM

Man5-enriched stabilized parental CH505TF SOSIP.664 Env trimer (made in 293S GnT1- cells) (from UniProt Q2N0S6) N279K
Kd [6, 9]: 28 nM
